# Assay results from patent US20250179152A1 (TEXAS A AND M UNIVERSITY SYSTEM, published 2025).
# Several values for one entry are separate records, joined by “and”; a condition that tells them apart may be missing. Equal values may be shown once.
# Key:
# [1] = molecular target: Δ19 spike protein of strain B.1.351 on pseudotyped lentivirus (SARS-CoV-2 (B.1.351)); assay: cell-based or functional assay
# [2] = molecular target: Δ19 spike protein of B.1.617.2 on pseudotyped lentivirus (SARS-CoV-2 (B.1.617.2)); assay: cell-based or functional assay
# [3] = molecular target: T1, human IgG1 Fc-tagged RBD, Wuhan-1 (SARS-CoV-2 (Wuhan-1); human, UniProt P0DTC2 319-541)
# [4] = molecular target: human IgG1 Fc-tagged RBD of Omicron (SARS-CoV-2 (Omicron); human)
# [5] = molecular target: Δ19 spike protein of C.37 on pseudotyped lentivirus (SARS-CoV-2 (C.37)); assay: cell-based or functional assay
# [6] = molecular target: spike protein of authentic SARS-CoV-2 B.1.351 (SARS-CoV-2 (B.1.351)); assay: cell-based or functional assay
# [7] = molecular target: spike protein of authentic SARS-CoV-2 B.1.617.2 (SARS-CoV-2 (B.1.617.2)); assay: cell-based or functional assay
# [8] = molecular target: spike protein of authentic SARS-CoV-2 B.1.617.2/AY1 (SARS-CoV-2 (B.1.617.2.AY1)); assay: cell-based or functional assay
# [9] = molecular target: spike protein of authentic SARS-CoV-2 B.1.1.519/BA.1 (SARS-CoV-2 (BA.1)); assay: cell-based or functional assay
# [10] = molecular target: spike protein of authentic SARS-CoV-2 B.1.1.519/BA.1.1 (SARS-CoV-2 (BA.1.1)); assay: cell-based or functional assay
# [11] = molecular target: spike protein of authentic SARS-CoV-2 B.1.1.519/BA.2 (SARS-CoV-2 (BA.2)); assay: cell-based or functional assay
# [12] = molecular target: T1, human IgG1 Fc-tagged RBD, Wuhan-1; assay: ELISA; DARPin coated, Fc-tagged RBD titrated
# [13] = molecular target: T2, human IgG1 Fc-tagged RBD, N439K (SARS-CoV-2; human, UniProt P0DTC2 319-541); assay: ELISA; DARPin coated, Fc-tagged RBD titrated
# T2 construct: domain: RBD
# [14] = molecular target: T3, human IgG1 Fc-tagged RBD, L452R (SARS-CoV-2; human, UniProt P0DTC2 319-541); assay: ELISA; DARPin coated, Fc-tagged RBD titrated
# T3 construct: domain: RBD
# [15] = molecular target: T4, human IgG1 Fc-tagged RBD, L452R + E484Q (SARS-CoV-2; human, UniProt P0DTC2 319-541); assay: ELISA; DARPin coated, Fc-tagged RBD titrated
# T4 construct: domain: RBD
# [16] = molecular target: T5, human IgG1 Fc-tagged RBD, L452R + T478K (SARS-CoV-2; human, UniProt P0DTC2 319-541); assay: ELISA; DARPin coated, Fc-tagged RBD titrated
# T5 construct: domain: RBD
# [17] = molecular target: T6, human IgG1 Fc-tagged RBD, S477N (SARS-CoV-2; human, UniProt P0DTC2 319-541); assay: ELISA; DARPin coated, Fc-tagged RBD titrated
# T6 construct: domain: RBD
# [18] = molecular target: T7, human IgG1 Fc-tagged RBD, T478K (SARS-CoV-2; human, UniProt P0DTC2 319-541); assay: ELISA; DARPin coated, Fc-tagged RBD titrated
# T7 construct: domain: RBD
# [19] = molecular target: T8, human IgG1 Fc-tagged RBD, E484Q (SARS-CoV-2; human, UniProt P0DTC2 319-541); assay: ELISA; DARPin coated, Fc-tagged RBD titrated
# T8 construct: domain: RBD
# [20] = molecular target: T9, human IgG1 Fc-tagged RBD, F486S (SARS-CoV-2; human, UniProt P0DTC2 319-541); assay: ELISA; DARPin coated, Fc-tagged RBD titrated
# T9 construct: domain: RBD
# [21] = molecular target: T10, human IgG1 Fc-tagged RBD, E484K (SARS-CoV-2; human, UniProt P0DTC2 319-541); assay: ELISA; DARPin coated, Fc-tagged RBD titrated
# T10 construct: domain: RBD
# [22] = molecular target: T11, human IgG1 Fc-tagged RBD, F490S (SARS-CoV-2; human, UniProt P0DTC2 319-541); assay: ELISA; DARPin coated, Fc-tagged RBD titrated
# T11 construct: domain: RBD
# [23] = molecular target: T12, human IgG1 Fc-tagged RBD, S494P (SARS-CoV-2; human, UniProt P0DTC2 319-541); assay: ELISA; DARPin coated, Fc-tagged RBD titrated
# T12 construct: domain: RBD
# [24] = molecular target: T13, human IgG1 Fc-tagged RBD, K417E (SARS-CoV-2; human, UniProt P0DTC2 319-541); assay: ELISA; DARPin coated, Fc-tagged RBD titrated
# T13 construct: domain: RBD
# [25] = molecular target: T14, human IgG1 Fc-tagged RBD, Y453F (SARS-CoV-2; human, UniProt P0DTC2 319-541); assay: ELISA; DARPin coated, Fc-tagged RBD titrated
# T14 construct: domain: RBD
# [26] = molecular target: T15, human IgG1 Fc-tagged RBD, L455F (SARS-CoV-2; human, UniProt P0DTC2 319-541); assay: ELISA; DARPin coated, Fc-tagged RBD titrated
# T15 construct: domain: RBD
# [27] = molecular target: T16, human IgG1 Fc-tagged RBD, G476S (SARS-CoV-2; human, UniProt P0DTC2 319-541); assay: ELISA; DARPin coated, Fc-tagged RBD titrated
# T16 construct: domain: RBD
# [28] = molecular target: T17, human IgG1 Fc-tagged RBD, F486V (SARS-CoV-2; human, UniProt P0DTC2 319-541); assay: ELISA; DARPin coated, Fc-tagged RBD titrated
# T17 construct: domain: RBD
# [29] = molecular target: T18, human IgG1 Fc-tagged RBD, K444Q (SARS-CoV-2; human, UniProt P0DTC2 319-541); assay: ELISA; DARPin coated, Fc-tagged RBD titrated
# T18 construct: domain: RBD
# [30] = molecular target: T19, human IgG1 Fc-tagged RBD, V445A (SARS-CoV-2; human, UniProt P0DTC2 319-541); assay: ELISA; DARPin coated, Fc-tagged RBD titrated
# T19 construct: domain: RBD
# [31] = molecular target: T20, human IgG1 Fc-tagged RBD, G446V (SARS-CoV-2; human, UniProt P0DTC2 319-541); assay: ELISA; DARPin coated, Fc-tagged RBD titrated
# T20 construct: domain: RBD
Binder,"Neutralization IC50, pseudotyped lentivirus [1]","Neutralization IC50, pseudotyped lentivirus [2]",Kd [3] [nM],Kd [4] [nM],"Neutralization IC50, pseudotyped lentivirus [5]","Neutralization IC50, authentic SARS-CoV-2 virus [6] [ngml^-1]","Neutralization IC50, authentic SARS-CoV-2 virus [7] [ngml^-1]","Neutralization IC50, authentic SARS-CoV-2 virus [8] [ngml^-1]","Neutralization IC50, authentic SARS-CoV-2 virus [9] [ngml^-1]","Neutralization IC50, authentic SARS-CoV-2 virus [10] [ngml^-1]","Neutralization IC50, authentic SARS-CoV-2 virus [11] [ngml^-1]",EC50 [12] [nM],EC50 [13] [nM],EC50 [14] [nM],EC50 [15] [nM],EC50 [16] [nM],EC50 [17] [nM],EC50 [18] [nM],EC50 [19] [nM],EC50 [20] [nM],further results
SR22 (designed binder) MGSSHHHHHHSSGLVPRGSHMEQKLISEEDLGSDLGKKLLEAARAGQDDEVRILMANGADVNACDPSGITPLHLAADKGHLEIVEVLLKYGADVNAMDVWGRTPLHLAAFTGHLEIVEVLLKYGADVNACDLNGYTPLHLAAGRGHLEIVEVLLKNGAGVNAQDKFGKTAFDISIDNGNEDLAEILQSSS,1100 nM,69.8 nM,–,–,–,–,–,–,–,–,–,–,–,–,–,–,–,–,–,–,–
FSR16m (designed binder) MGMEQKLISEEDLDGYIPEAPRDGQAYVRKDGEWVLLSTFLGGGGSLQGGGGSLQGSDLGKKLLEAARAGQDDEVRILMANGADVNALDLFGVTPLHLAAERGHLEIVEVLLKNGADVNAGDAFGRTPLHLAALGGHLEIVEVLLKNGADVNACDLYGVTPLHLAAGLGHLEIVEVLLKNGADVNAQDKFGKTAFDISIDNGNEDLAEILQSSSKLAAALEHHHHHH,18 pM and 1.3 ng/ml,66 pM and 4.8 ng/mL,< 0.001,3.65,0.9 ng/ml and 13 pM,3.4,2.2,3.3,44.7,7.4,33.3,0.59,0.75,0.37,0.21,0.13,0.63,0.19,0.34,≥ 300,EC50 [21]: 0.21 nM; EC50 [22]: 0.15 nM; EC50 [23]: 0.26 nM; EC50 [24]: 300 nM; EC50 [25]: 0.74 nM; EC50 [26]: 0.1 nM; EC50 [27]: 5.73 nM; EC50 [28]: 300 nM; EC50 [29]: 1.03 nM; EC50 [30]: 0.46 nM; EC50 [31]: 7.65 nM
FSR22 (designed binder) MGSSHHHHHHSSGMEQKLISEEDLDGYIPEAPRDGQAYVRKDGEWVLLSTFLGGGGSLQGGGGSLQGSDLGKKLLEAARAGQDDEVRILMANGADVNACDPSGITPLHLAADKGHLEIVEVLLKYGADVNAMDVWGRTPLHLAAFTGHLEIVEVLLKYGADVNACDLNGYTPLHLAAGRGHLEIVEVLLKNGAGVNAQDKFGKTAFDISIDNGNEDLAEILQSSS,9.5 ng/ml and 135 pM,13.3 ng/ml and 188 pM,12.3,2.63,6.3 ng/ml and 89 pM,57.2,41.7,44.2,169,41.2,216,1.96,2.63,1.87,4.05,7.83,1.57,15.2,4.05,70.5,EC50 [21]: 4.57 nM; EC50 [22]: 1.57 nM; EC50 [23]: 0.61 nM; EC50 [24]: 300 nM; EC50 [25]: 3.97 nM; EC50 [26]: 9.24 nM; EC50 [27]: 27.2 nM; EC50 [28]: 105 nM; EC50 [29]: 5.92 nM; EC50 [30]: 3.43 nM; EC50 [31]: 30.6 nM
SR16m (designed binder) MGSSDLGKKLLEAARAGQDDEVRILMANGADVNALDLFGVTPLHLAAERGHLEIVEVLLKNGADVNAGDAFGRTPLHLAALGGHLEIVEVLLKNGADVNACDLYGVTPLHLAAGLGHLEIVEVLLKNGADVNAQDKFGKTAFDISIDNGNEDLAEILQSSSKLAAALEHHHHHH,420 nM,77.8 nM,–,–,–,–,–,–,–,–,–,–,–,–,–,–,–,–,–,–,–
